# From US20020058247A1 (TRIPEP, published 2002)
# B1: QKFKGKATLTVDKSSSTAYM (SEQ. ID. No. 33) (peptide)
# peptide: QKFKGKATLTVDKSSSTAYM
# notes: also called Peptide # 30
# B2: VSTSSYSYMHWY (SEQ. ID. No. 60) (peptide)
# peptide: VSTSSYSYMHWY
# B3: SYMHWY (SEQ. ID. No. 65) (peptide)
# peptide: SYMHWY
# B4: SVSTSSYSYMHWY (SEQ. ID. No. 59) (peptide)
# peptide: SVSTSSYSYMHWY
# B5: STSSYSYMHWY (SEQ. ID. No. 61) (peptide)
# peptide: STSSYSYMHWY
# B6: CRASQSVSTSSYSYMHWY (SEQ. ID. No. 54) (peptide)
# peptide: CRASQSVSTSSYSYMHWY
# B7: SYSYMHWY (printed with SEQ. ID. No. 63, a number already used for …) (peptide)
# peptide: SYSYMHWY
# B8: QSVSTSSYSYMHWY (SEQ. ID. No. 58) (peptide)
# peptide: QSVSTSSYSYMHWY
# B9: KPGASVKLSCKASGYIFTS (SEQ. ID. No. 39) (peptide)
# peptide: KPGASVKLSCKASGYIFTS
# B10: YSYMHWY (SEQ. ID. No. 64) (peptide)
# peptide: YSYMHWY
# B11: SSYSYMHWY (SEQ. ID. No. 63) (peptide)
# peptide: SSYSYMHWY
# B12: TSSYSYMHWY (SEQ. ID. No. 62) (peptide)
# peptide: TSSYSYMHWY
# B13: SQSVSTSSYSYMHWY (SEQ. ID. No. 57) (peptide)
# peptide: SQSVSTSSYSYMHWY
# B14: ASQSVSTSSYSYMHWY (SEQ. ID. No. 56) (peptide)
# peptide: ASQSVSTSSYSYMHWY
# B15: SCRASQSVSTSSYSYMHWY (SEQ. ID. No. 53) (peptide)
# peptide: SCRASQSVSTSSYSYMHWY
# B16: PGASVKLSCKASGYIFTS (SEQ. ID. No. 40) (peptide)
# peptide: PGASVKLSCKASGYIFTS
# B17: LVTVSAAKTTPPSVYPLVPV (SEQ. ID. No. 38) (peptide)
# peptide: LVTVSAAKTTPPSVYPLVPV
# notes: also called Peptide # 35
# B18: YDIDWVRQTPEQGLEWIGWI (SEQ. ID. No. 7) (peptide)
# peptide: YDIDWVRQTPEQGLEWIGWI
# notes: also called Peptide # 4
# B19: ELTRLTSEDSAVYFCARGDY (SEQ. ID. No. 12) (peptide)
# peptide: ELTRLTSEDSAVYFCARGDY
# notes: also called Peptide # 9
# B20: CKASGYIFTSYDIDWVRQTP (SEQ. ID. No. 6) (peptide)
# peptide: CKASGYIFTSYDIDWVRQTP
# notes: also called Peptide # 3
# B21: QLNSLTSEDSAVYYCARGKG (SEQ. ID. No. 35) (peptide)
# peptide: QLNSLTSEDSAVYYCARGKG
# notes: also called Peptide # 32
# Target: T1, Full length recombinant HBcAg (rHBcAg) encompassing residues 1-183 (hepatitis B virus, UniProt P03146 1-183)
# T1 construct: range 1-183; also called hepatitis B virus core antigen
# Assay: EIA, support-bound peptide, HBcAg 2 ug/well
# T1 sequence (P03146 whole entry, the tested form may be a part): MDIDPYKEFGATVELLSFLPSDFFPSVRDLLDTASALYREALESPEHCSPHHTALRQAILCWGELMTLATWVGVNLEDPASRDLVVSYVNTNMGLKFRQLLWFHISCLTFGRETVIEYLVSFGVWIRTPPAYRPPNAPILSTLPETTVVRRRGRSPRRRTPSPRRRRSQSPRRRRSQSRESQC
row,Binder,OD at 405 nm [OD]
1,B1,1.11

# Target: T1, Full length recombinant HBcAg (rHBcAg) …
# Assay: EIA, support-bound peptide, HBcAg 0.2 ug/well
row,Binder,OD at 405 nm [OD]
1,B1,0.207

# Target: T1, Full length recombinant HBcAg (rHBcAg) …
# Assay: EIA, support-bound peptide, HBcAg 5 ug/ml
row,Binder,OD at 490 nm [OD]
1,B2,0.369
2,B3,0.218
3,B4,0.305
4,B5,0.372
5,B6,1.42
6,B7,0.283
7,B8,0.282
8,B9,1.34
9,B10,0.245
10,B11,0.311
11,B12,0.317
12,B13,0.31
13,B14,0.324
14,B15,1.45
15,B16,1.72

# Target: T1, Full length recombinant HBcAg (rHBcAg) …
# Assay: competition EIA, peptide added to HBcAg before mAb 4-2 (competitor); OD of bound mAb
row,Binder,OD at 490 nm [OD]
1,B9,0.202
2,B16,0.182

# Target: T2, non-structural 3 protein (NS3) of the hepatitis C virus (HCV) (hepatitis C virus)
# T2 construct: Control antigen; also called HCV NS3
# Assay: EIA, support-bound peptide, HCV NS3 control
row,Binder,OD at 405 nm [OD]
1,B17,0.032
2,B18,0.089
3,B19,0.073
4,B20,0.032
5,B21,0.035
6,B1,0.035
